Measurements published in US20200079833A1 (AstraZeneca / MedImmune, published 2020).
Starred links: 1 amine or outer side, 2 acyl side, 3 side chain; linkers in the order of their positions; H or OH if unused. Non-standard residues stand in square brackets, D forms with d. Groups on a side chain read outwards from the residue. Primed or numbered codes have the meaning given here. No end group written: not given here. *: point of attachment. Dodecanoyl(12-OPh(4-COOH)) = O=C(O)c1ccc(OCCCCCCCCCCCC(=O)*)cc1; γGlu = O=C(O)[C@H](CCC(=O)[*:2])N[*:1]; αMeF = C[C@](N)(Cc1ccccc1)C(=O)O; αMeK = C[C@](N)(CCCCN)C(=O)O; Lauroyl = CCCCCCCCCCCC(=O)*; αMeS = C[C@](N)(CO)C(=O)O; PEG2′ = not defined here; Aib = CC(C)(N)C(=O)O; Ahx = NCCCCCC(=O)O

T1: glucose-dependent insulinotropic peptide (gastric inhibitory polypeptide) receptor (GIPR) (human, UniProt P48546 22-466)
T1 sequence (looked up): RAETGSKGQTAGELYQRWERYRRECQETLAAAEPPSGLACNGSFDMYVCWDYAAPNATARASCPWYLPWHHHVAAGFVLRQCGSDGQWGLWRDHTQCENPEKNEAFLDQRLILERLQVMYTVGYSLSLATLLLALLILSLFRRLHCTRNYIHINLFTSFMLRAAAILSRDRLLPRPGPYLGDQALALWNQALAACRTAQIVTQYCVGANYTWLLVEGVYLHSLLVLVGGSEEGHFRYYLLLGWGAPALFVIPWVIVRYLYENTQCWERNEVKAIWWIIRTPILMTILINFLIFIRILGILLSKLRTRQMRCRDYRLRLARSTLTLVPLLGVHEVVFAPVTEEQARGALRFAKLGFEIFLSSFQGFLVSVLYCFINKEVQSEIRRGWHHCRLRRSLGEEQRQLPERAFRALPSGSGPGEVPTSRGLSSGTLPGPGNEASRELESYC

B1: SEQ ID NO 140 (peptide)
peptide: H[Aib]EGS[αMeF]TSDV[αMeS]S[αMeF]LEGEAAK([Ahx-Dodecanoyl(12-OPh(4-COOH))])E[αMeF]IA[αMeF]VV[αMeK]GG-NH2
modifications: N-terminus assumed
SMILES: CC[C@H](C)[C@H](NC(=O)[C@](C)(Cc1ccccc1)NC(=O)[C@H](CCC(=O)O)NC(=O)[C@H](CCCCNC(=O)CCCCCNC(=O)CCCCCCCCCCCOc1ccc(C(=O)O)cc1)NC(=O)[C@H](C)NC(=O)[C@H](C)NC(=O)[C@H](CCC(=O)O)NC(=O)CNC(=O)[C@H](CCC(=O)O)NC(=O)[C@H](CC(C)C)NC(=O)[C@](C)(Cc1ccccc1)NC(=O)[C@H](CO)NC(=O)[C@](C)(CO)NC(=O)[C@@H](NC(=O)[C@H](CC(=O)O)NC(=O)[C@H](CO)NC(=O)[C@@H](NC(=O)[C@](C)(Cc1ccccc1)NC(=O)[C@H](CO)NC(=O)CNC(=O)[C@H](CCC(=O)O)NC(=O)C(C)(C)NC(=O)[C@@H](N)Cc1c[nH]cn1)[C@@H](C)O)C(C)C)C(=O)N[C@@H](C)C(=O)N[C@@](C)(Cc1ccccc1)C(=O)N[C@H](C(=O)N[C@H](C(=O)N[C@@](C)(CCCCN)C(=O)NCC(=O)NCC(N)=O)C(C)C)C(C)C
B2: SEQ ID NO 138 (peptide)
peptide: H[Aib]EGS[αMeF]TSDV[αMeS]S[αMeF]LEGEAAK([γGlu-γGlu-Dodecanoyl(12-OPh(4-COOH))])E[αMeF]IA[αMeF]VV[αMeK]GG-NH2
modifications: N-terminus assumed
SMILES: CC[C@H](C)[C@H](NC(=O)[C@](C)(Cc1ccccc1)NC(=O)[C@H](CCC(=O)O)NC(=O)[C@H](CCCCNC(=O)CC[C@H](NC(=O)CC[C@H](NC(=O)CCCCCCCCCCCOc1ccc(C(=O)O)cc1)C(=O)O)C(=O)O)NC(=O)[C@H](C)NC(=O)[C@H](C)NC(=O)[C@H](CCC(=O)O)NC(=O)CNC(=O)[C@H](CCC(=O)O)NC(=O)[C@H](CC(C)C)NC(=O)[C@](C)(Cc1ccccc1)NC(=O)[C@H](CO)NC(=O)[C@](C)(CO)NC(=O)[C@@H](NC(=O)[C@H](CC(=O)O)NC(=O)[C@H](CO)NC(=O)[C@@H](NC(=O)[C@](C)(Cc1ccccc1)NC(=O)[C@H](CO)NC(=O)CNC(=O)[C@H](CCC(=O)O)NC(=O)C(C)(C)NC(=O)[C@@H](N)Cc1c[nH]cn1)[C@@H](C)O)C(C)C)C(=O)N[C@@H](C)C(=O)N[C@@](C)(Cc1ccccc1)C(=O)N[C@H](C(=O)N[C@H](C(=O)N[C@@](C)(CCCCN)C(=O)NCC(=O)NCC(N)=O)C(C)C)C(C)C
B3: SEQ ID NO 134 (peptide)
peptide: H[Aib]EGS[αMeF]TSDV[αMeS]S[αMeF]LEGEAAK([PEG2′-Lauroyl])E[αMeF]IA[αMeF]VV[αMeK]GG-NH2
B4: SEQ ID NO 135 (peptide)
peptide: H[Aib]EGS[αMeF]TSDV[αMeS]S[αMeF]LEGEAAK([PEG2′-PEG2′-Lauroyl])E[αMeF]IA[αMeF]VV[αMeK]GG-NH2
B5: SEQ ID NO 133 (peptide)
peptide: H[Aib]EGS[αMeF]TSDV[αMeS]S[αMeF]LEGEAAK([Ahx-Ahx-Ahx-Lauroyl])E[αMeF]IA[αMeF]VV[αMeK]GG-NH2
modifications: N-terminus assumed
SMILES: CCCCCCCCCCCC(=O)NCCCCCC(=O)NCCCCCC(=O)NCCCCCC(=O)NCCCC[C@H](NC(=O)[C@H](C)NC(=O)[C@H](C)NC(=O)[C@H](CCC(=O)O)NC(=O)CNC(=O)[C@H](CCC(=O)O)NC(=O)[C@H](CC(C)C)NC(=O)[C@](C)(Cc1ccccc1)NC(=O)[C@H](CO)NC(=O)[C@](C)(CO)NC(=O)[C@@H](NC(=O)[C@H](CC(=O)O)NC(=O)[C@H](CO)NC(=O)[C@@H](NC(=O)[C@](C)(Cc1ccccc1)NC(=O)[C@H](CO)NC(=O)CNC(=O)[C@H](CCC(=O)O)NC(=O)C(C)(C)NC(=O)[C@@H](N)Cc1c[nH]cn1)[C@@H](C)O)C(C)C)C(=O)N[C@@H](CCC(=O)O)C(=O)N[C@@](C)(Cc1ccccc1)C(=O)N[C@H](C(=O)N[C@@H](C)C(=O)N[C@@](C)(Cc1ccccc1)C(=O)N[C@H](C(=O)N[C@H](C(=O)N[C@@](C)(CCCCN)C(=O)NCC(=O)NCC(N)=O)C(C)C)C(C)C)[C@@H](C)CC
B6: SEQ ID NO 137 (peptide)
peptide: H[Aib]EGS[αMeF]TSDV[αMeS]S[αMeF]LEGEAAK([γGlu-Dodecanoyl(12-OPh(4-COOH))])E[αMeF]IA[αMeF]VV[αMeK]GG-NH2
modifications: N-terminus assumed
SMILES: CC[C@H](C)[C@H](NC(=O)[C@](C)(Cc1ccccc1)NC(=O)[C@H](CCC(=O)O)NC(=O)[C@H](CCCCNC(=O)CC[C@H](NC(=O)CCCCCCCCCCCOc1ccc(C(=O)O)cc1)C(=O)O)NC(=O)[C@H](C)NC(=O)[C@H](C)NC(=O)[C@H](CCC(=O)O)NC(=O)CNC(=O)[C@H](CCC(=O)O)NC(=O)[C@H](CC(C)C)NC(=O)[C@](C)(Cc1ccccc1)NC(=O)[C@H](CO)NC(=O)[C@](C)(CO)NC(=O)[C@@H](NC(=O)[C@H](CC(=O)O)NC(=O)[C@H](CO)NC(=O)[C@@H](NC(=O)[C@](C)(Cc1ccccc1)NC(=O)[C@H](CO)NC(=O)CNC(=O)[C@H](CCC(=O)O)NC(=O)C(C)(C)NC(=O)[C@@H](N)Cc1c[nH]cn1)[C@@H](C)O)C(C)C)C(=O)N[C@@H](C)C(=O)N[C@@](C)(Cc1ccccc1)C(=O)N[C@H](C(=O)N[C@H](C(=O)N[C@@](C)(CCCCN)C(=O)NCC(=O)NCC(N)=O)C(C)C)C(C)C
B7: SEQ ID NO 136 (peptide)
peptide: H[Aib]EGS[αMeF]TSDV[αMeS]S[αMeF]LEGEAAK([PEG2′-PEG2′-PEG2′-Lauroyl])E[αMeF]IA[αMeF]VV[αMeK]GG-NH2
B8: SEQ ID NO 139 (peptide)
peptide: H[Aib]EGS[αMeF]TSDV[αMeS]S[αMeF]LEGEAAK([γGlu-γGlu-γGlu-Dodecanoyl(12-OPh(4-COOH))])E[αMeF]IA[αMeF]VV[αMeK]GG-NH2
modifications: N-terminus assumed
SMILES: CC[C@H](C)[C@H](NC(=O)[C@](C)(Cc1ccccc1)NC(=O)[C@H](CCC(=O)O)NC(=O)[C@H](CCCCNC(=O)CC[C@H](NC(=O)CC[C@H](NC(=O)CC[C@H](NC(=O)CCCCCCCCCCCOc1ccc(C(=O)O)cc1)C(=O)O)C(=O)O)C(=O)O)NC(=O)[C@H](C)NC(=O)[C@H](C)NC(=O)[C@H](CCC(=O)O)NC(=O)CNC(=O)[C@H](CCC(=O)O)NC(=O)[C@H](CC(C)C)NC(=O)[C@](C)(Cc1ccccc1)NC(=O)[C@H](CO)NC(=O)[C@](C)(CO)NC(=O)[C@@H](NC(=O)[C@H](CC(=O)O)NC(=O)[C@H](CO)NC(=O)[C@@H](NC(=O)[C@](C)(Cc1ccccc1)NC(=O)[C@H](CO)NC(=O)CNC(=O)[C@H](CCC(=O)O)NC(=O)C(C)(C)NC(=O)[C@@H](N)Cc1c[nH]cn1)[C@@H](C)O)C(C)C)C(=O)N[C@@H](C)C(=O)N[C@@](C)(Cc1ccccc1)C(=O)N[C@H](C(=O)N[C@H](C(=O)N[C@@](C)(CCCCN)C(=O)NCC(=O)NCC(N)=O)C(C)C)C(C)C

What follows are binders tested against glucagon receptor (GCGR) (human, UniProt P47871 26-477) (assay: cell-based or functional assay).
glucagon receptor (GCGR), sequence (P47871 26-477): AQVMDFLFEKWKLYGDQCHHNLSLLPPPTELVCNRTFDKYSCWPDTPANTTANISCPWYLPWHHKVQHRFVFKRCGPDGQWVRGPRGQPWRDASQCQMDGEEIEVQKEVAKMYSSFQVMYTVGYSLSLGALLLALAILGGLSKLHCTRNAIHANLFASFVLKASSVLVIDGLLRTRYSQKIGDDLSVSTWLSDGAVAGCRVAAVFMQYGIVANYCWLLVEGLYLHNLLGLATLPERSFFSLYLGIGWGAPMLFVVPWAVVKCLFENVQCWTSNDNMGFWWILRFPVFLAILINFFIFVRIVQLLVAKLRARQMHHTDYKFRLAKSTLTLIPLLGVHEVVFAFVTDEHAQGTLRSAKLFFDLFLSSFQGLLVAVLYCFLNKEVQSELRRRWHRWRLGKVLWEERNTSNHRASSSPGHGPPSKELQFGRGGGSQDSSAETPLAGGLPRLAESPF

Binder	cAMP Primary assay EC50 Gluc-R [nM]	cAMP Primary assay EC50 Gluc-R (2nd) [nM]
B1	27	27
B2	26	26
B3	28	28
B4	27	27
B5	27	27
B6	27	27
B7	26	26
B8	26	26

What follows are binders tested against T1, glucose-dependent insulinotropic … (assay: cell-based or functional assay).

Binder	cAMP Primary assay EC50 GIP-R [nM]	cAMP Primary assay EC50 GIP-R (2nd) [nM]
B1	27	27
B2	26	26
B3	28	28
B4	27	27
B5	27	27
B6	27	27
B7	26	26
B8	26	26

Each binder was assayed against GLP-1 receptor (GLP-1R) (human, UniProt P43220 24-463) (assay: cell-based or functional assay).

Binder	cAMP Mean pM GLP-1R [pM]	cAMP Primary assay EC50 GLP-1R n1 [nM]	cAMP Primary assay EC50 GLP-1R n2 [nM]
B1	4.9	0.0059	0.0039
B2	17.2	0.019	0.015
B3	6	0.007	0.0049
B4	5	0.0054	0.0045
B5	29.4	0.034	0.025
B6	5.2	0.0066	0.0038
B7	3	0.0035	0.0025
B8	25.5	0.029	0.022
